Source: the supplement of paper PMC10724198
± gives the standard deviation of the averaged measurements.

Test system: Saccharomyces cerevisiae
Assay: protein stability index of tFT-peptide fusion (C-terminal peptide) (PSI (0-1 scale)); higher = more stable (slower turnover)
Conditions: genetic background: wild type; temperature: 30 C
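Note: PSI is a weighted mean of sequencing reads over stability bins, variants kept only with over 10 reads, mCherry proximal and sfGFP distal, peptide attached via GGGS linker.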

| Sequence | protein stability index |
| --- | --- |
| GDRYFGTPAPSH | 0.757 ± 0.021 |
| FSPHTPPRRLPL | 0.721 ± 0.066 |
| SSFGIVWKKDAI | 0.736 ± 0.053 |
| PAPPPPPPRPPP | 0.669 ± 0.071 |
| KEIRNNEKKKKK | 0.657 ± 0.013 |
| CFRFPILTSHFY | 0.592 ± 0.026 |
| FMSRDPKDDTET | 0.685 ± 0.076 |
| RAPGPGQIRLVQ | 0.72 ± 0.035 |
| GYGNQLILAISN | 0.576 ± 0.021 |
| ITLFPKGLRANK | 0.686 ± 0.045 |
| PPFFFIDMGASN | 0.697 ± 0.054 |
| GGAYRCFSIQRS | 0.687 ± 0.0078 |
| LDFLLSMVHGKK | 0.702 ± 0.022 |
| EELGGGTRNYEG | 0.693 ± 0.018 |
| CNLVCFRRFLYR | 0.62 ± 0.041 |
| DDSQKLTNNNEG | 0.744 ± 0.013 |
| SPPVRLPSASTV | 0.681 ± 0.036 |
| EIRGGYMGEWRE | 0.691 ± 0.082 |
| DPCWLEFRESGG | 0.704 ± 0.12 |
| KGVLTKRAVPST | 0.703 ± 0.025 |
| PLNHIVHPHRAP | 0.687 ± 0.0052 |
| GGGWSRGGVGDR | 0.672 ± 0.027 |
| FACLGPLRRRLG | 0.682 ± 0.012 |
| VHKMAARGATRL | 0.647 ± 0.036 |
| LGLSTVKLEVPW | 0.7731 ± 0.0016 |
| SICFWCKHWSDV | 0.72 ± 0.064 |

| Sequence | protein stability index |
| --- | --- |
| VWGWGAWGGCGG | 0.719 ± 0.067 |
| GGVVGVEWGAVG | 0.626 ± 0.015 |
| GESWCGLVWPGG | 0.675 ± 0.013 |
| VVLFGAGGSWGG | 0.726 ± 0.063 |
| GASGWGGGGRGR | 0.767 ± 0.14 |
| YRLDTFCPHFSN | 0.752 ± 0.13 |
| RGPSSPTPRPAA | 0.77 ± 0.13 |
| GCGVGVGASVGR | 0.636 ± 0.025 |
| HPPHPPPLPGSP | 0.802 ± 0.076 |
| RGEVWVEVALGV | 0.642 ± 0.021 |
| TVAPNFIPTSTS | 0.662 ± 0.044 |
| TFFPPLPPPSPS | 0.702 ± 0.012 |
| CVPLPCLPLPPS | 0.66 ± 0.012 |
| ERAKMYPKKKIR | 0.64 ± 0.067 |
| PPTPMRAQRHPR | 0.579 ± 0.01 |
| ENQKKSKTNRKK | 0.658 ± 0.036 |
| WGGFGLGVCAKC | 0.616 ± 0.072 |
| SNCARGNREFYW | 0.733 ± 0.058 |
| VAPPRQGSPASR | 0.725 ± 0.057 |
| PVRCSDLDLTFL | 0.774 ± 0.054 |
| GHCVALGNRVLH | 0.665 ± 0.068 |
| DTPLIYSLKSEC | 0.7511 ± 0.0022 |
| FIHVPAYGNVCV | 0.611 ± 0.058 |
| VYLSSSLFPPSS | 0.804 ± 0.042 |
| LPTLPPPTPYAL | 0.652 ± 0.044 |
| GRRLGREWGDAP | 0.721 ± 0.12 |

| Sequence | protein stability index |
| --- | --- |
| THPFLRTHPPVE | 0.714 ± 0.097 |
| LLLASSHAPYLH | 0.77 ± 0.021 |
| FEVSGYRNGRAL | 0.694 ± 0.0074 |
| CNTPGLSHELLH | 0.786 ± 0.11 |
| GRGGGRGVGVVG | 0.6345 ± 0.0028 |
| CMFSSTSSTNVN | 0.731 ± 0.085 |
| TDISPRFVSVYL | 0.656 ± 0.017 |
| SVGSSGFMLFCL | 0.741 ± 0.18 |
| FCGFLFRLSSVL | 0.626 ± 0.025 |
| LKAACAKRGVLS | 0.679 ± 0.085 |
| KKEKEKRRDRWR | 0.661 ± 0.014 |
| VSVRLWSGQSAG | 0.672 ± 0.11 |
| QNKKKEKKQEIQ | 0.7 ± 0.042 |
| MTKNKFLTGSRL | 0.845 ± 0.22 |
| GGLICRHGVGRG | 0.705 ± 0.024 |
| AFRGFLSVNFNL | 0.7338 ± 0.005 |
| RMKKKKNKARDI | 0.729 ± 0.045 |
| HPPPARSPPSLP | 0.741 ± 0.041 |
| MLHLNPVLHISG | 0.653 ± 0.041 |
| EHHLSRLKSLLR | 0.709 ± 0.058 |
| PLAPPRHRRRPG | 0.7132 ± 0.0047 |
| LIPIRGESTFRF | 0.779 ± 0.11 |
| STGPFFMIKGSF | 0.72 ± 0.027 |
| FCEASSSSRISA | 0.744 ± 0.088 |
| FGGGSWSMRWSW | 0.639 ± 0.024 |
| AIVASAPSLGRS | 0.658 ± 0.038 |

| Sequence | protein stability index |
| --- | --- |
| EGPVYKNIGTDV | 0.6823 ± 0.0013 |
| IATDGARCACDP | 0.688 ± 0.022 |
| RMEGCRLSLGVP | 0.63 ± 0.075 |
| PPAPLPLAPSSL | 0.722 ± 0.042 |
| KKKKKKKEYKKK | 0.752 ± 0.038 |
| ESKKYQQDNITR | 0.608 ± 0.039 |
| PPPLPPPYPPPP | 0.627 ± 0.016 |
| GPRRLGGTSLGI | 0.651 ± 0.098 |
| PRLLSLKLSALS | 0.629 ± 0.063 |
| SPPPPPPSYPAH | 0.772 ± 0.051 |
| SCLHRDLSDTCQ | 0.66536 ± 0.00012 |
| WLFAFLCSCFCV | 0.71 ± 0.093 |
| WRWCGLWDTRTY | 0.819 ± 0.0085 |
| FISPLNFPARPS | 0.7181 ± 0.0015 |
| GRVGSLCGWLWR | 0.722 ± 0.02 |
| GYEDTLKKILEI | 0.673 ± 0.099 |
| PPPPPGLAPPSP | 0.681 ± 0.011 |
| GMTYEKIKNVIE | 0.651 ± 0.025 |
| GGDARGRGGMPD | 0.712 ± 0.12 |
| SRVIFSQSLSVP | 0.654 ± 0.038 |
| AAKQIPRYRTTG | 0.716 ± 0.078 |
| PPALRPPPPPPP | 0.6932 ± 0.0019 |
| VVGSVQQSSDSC | 0.692 ± 0.07 |
